Measurements from patent publication US20100298224A1 (UNIVERSITE PARIS SUD XI, published 2010).

Target: T1, factor Xa (FXa, Kordia) (UniProt P00742 41-179; P00742 235-488, limits assumed)
T1 construct: The bovine factor Xa of the Rotachrom kit is a different reagent and is not used here
Experiment: ratio of kon for FXa inhibition against plasma AT, with pentasaccharide
Description: In a second time FXa residual activity is measured by adding 190 μl of S2765 (200 μM) to 10 μl of previous mixture. Initial rate of substrate hydrolysis is then plotted as the function of incubation time with inhibitor and curves are fitted with equation 1 to determine kon (gray lines). Time expressed in minute is plotted in abscissa; substrate hydrolysis rate expressed in OD/s⁻¹ is plotted in ordinate.

T1 sequence (P00742 41-179 limits assumed, form in doubt, chain 1 of 2): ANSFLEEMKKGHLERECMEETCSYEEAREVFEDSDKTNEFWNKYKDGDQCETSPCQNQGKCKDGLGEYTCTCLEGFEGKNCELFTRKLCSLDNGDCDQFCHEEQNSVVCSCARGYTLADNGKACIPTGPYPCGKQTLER
T1 sequence (P00742 235-488 limits assumed, form in doubt, chain 2 of 2): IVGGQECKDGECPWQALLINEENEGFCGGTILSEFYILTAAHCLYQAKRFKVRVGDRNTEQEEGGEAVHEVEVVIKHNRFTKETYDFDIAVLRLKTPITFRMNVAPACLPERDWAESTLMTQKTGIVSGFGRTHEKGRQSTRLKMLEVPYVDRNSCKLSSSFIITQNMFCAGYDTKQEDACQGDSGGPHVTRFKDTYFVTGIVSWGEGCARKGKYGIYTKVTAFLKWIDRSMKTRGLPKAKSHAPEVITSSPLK

- fold lower kon than plasma AT: ≥ 7600 fold
B1: AT-N135Q-Pro394 (other)
chain: HGSPVDICTAKPRDIPMNPMCIYRSPEKKATEDEGSEQKIPEATNRRVWELSKANSRFATTFYQHLADSKNDNDNIFLSPLSISTAFAMTKLGACNDTLQQLMEVFKFDTISEKTSDQIHFFFAKLNCRLYRKAQKSSKLVSANRLFGDKSLTFNETYQDISELVYGAKLQPLDFKENAEQSRAAINKWVSNKTEGRITDVIPSEAINELTVLVLVNTIYFKGLWKSKFSPENTRKELFYKADGESCSASMMYQEGKFRYRRVAEGTQVLELPFKGDDITMVLILPKPEKSLAKVEKELTPEVLQEWLDELEEMMLVVHMPRFRIEDGFSLKEQLQDMGLVDLFSPEKSKLPGIVAEGRDDLYVSDAFHKAFLEVNEEGSEAAASTAVVIAGRPSLNPNRVTFKANRPFLVFIREVPLNTIIFMGRVANPCVK
notes: Recombinant double mutant antithrombin made in HEK-293 or BHK-21 cells, secreted
